# Assay results taken from IntAct's records for PubMed 12732728.
# B1: RNA polymerase II subunit A C-terminal domain phosphatase (Homo sapiens), Q9Y5B0 (parent)
# chain: MEVPAAGRVPAEGAPTAAVAEVRCPGPAPLRLLEWRVAAGAAVRIGSVLAVFEAAASAQSSGASQSRVASGGCVRPARPERRLRSERAGVVRELCAQPGQVVAPGAVLVRLEGCSHPVVMKGLCAECGQDLTQLQSKNGKQQVPLSTATVSMVHSVPELMVSSEQAEQLGREDQQRLHRNRKLVLMVDLDQTLIHTTEQHCQQMSNKGIFHFQLGRGEPMLHTRLRPHCKDFLEKIAKLYELHVFTFGSRLYAHTIAGFLDPEKKLFSHRILSRDECIDPFSKTGNLRNLFPCGDSMVCIIDDREDVWKFAPNLITVKKYVYFQGTGDMNAPPGSRESQTRKKVNHSRGTEVSEPSPPVRDPEGVTQAPGVEPSNGLEKPARELNGSEAATPRDSPRPGKPDERDIWPPAQAPTSSQELAGAPEPQGSCAQGGRVAPGQRPAQGATGTDLDFDLSSDSESSSESEGTKSSSSASDGESEGKRGRQKPKAAPEGAGALAQGSSLEPGRPAAPSLPGEAEPGAHAPDKEPELGGQEEGERDGLCGLGNGCADRKEAETESQNSELSGVTAGESLDQSMEEEEEEDTDEDDHLIYLEEILVRVHTDYYAKYDRYLNKEIEEAPDIRKIVPELKSKVLADVAIIFSGLHPTNFPIEKTREHYHATALGAKILTRLVLSPDAPDRATHLIAARAGTEKVLQAQECGHLHVVNPDWLWSCLERWDKVEEQLFPLRDDHTKAQRENSPAAFPDREGVPPTALFHPMPVLPKAQPGPEVRIYDSNTGKLIRTGARGPPAPSSSLPIRQEPSSFRAVPPPQPQMFGEELPDAQDGEQPGPSRRKRQPSMSETMPLYTLCKEDLESMDKEVDDILGEGSDDSDSEKRRPEEQEEEPQPRKPGTRRERTLGAPASSERSAAGGRGPRGHKRKLNEEDAASESSRESSNEDEGSSSEADEMAKALEAELNDLM
# Variants of: B1
# Conditions: with t2fa_human GTF2F1, P35269
# Chain of t2fa_human GTF2F1, P35269 (P35269 whole entry): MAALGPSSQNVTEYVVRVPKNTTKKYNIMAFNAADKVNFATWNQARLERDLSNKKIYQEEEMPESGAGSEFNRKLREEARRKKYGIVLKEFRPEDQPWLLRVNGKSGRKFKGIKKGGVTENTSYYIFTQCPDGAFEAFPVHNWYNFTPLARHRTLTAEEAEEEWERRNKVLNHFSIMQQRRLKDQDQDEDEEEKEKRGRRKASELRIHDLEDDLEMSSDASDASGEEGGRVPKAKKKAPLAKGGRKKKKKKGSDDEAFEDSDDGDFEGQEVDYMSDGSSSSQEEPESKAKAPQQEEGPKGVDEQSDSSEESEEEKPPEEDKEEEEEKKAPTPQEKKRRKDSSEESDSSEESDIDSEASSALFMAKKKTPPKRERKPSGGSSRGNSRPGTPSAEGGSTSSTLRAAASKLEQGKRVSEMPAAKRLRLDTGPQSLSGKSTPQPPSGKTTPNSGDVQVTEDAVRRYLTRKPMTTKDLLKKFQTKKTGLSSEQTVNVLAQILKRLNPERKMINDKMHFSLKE
row,effect of a mutation on the interaction,Variant
1,decreasing interaction,E956A;L957A
